Reference: patent US20220064329A1 (Novo Nordisk, published 2022)
Where a chain is given by its changes, count along the chain named.

What was measured:
Test in all cases: SPR, Biacore T200, 25 C; FVII(a) variant captured on anti-Gla Ab 4F6, mAb0842(OA) injected
[1] = molecular target: T1, FVII(a) variant T185A (human, UniProt P08709 61-466)
T1 construct: hFVII alanine variant in cell culture supernatant
T1 sequence: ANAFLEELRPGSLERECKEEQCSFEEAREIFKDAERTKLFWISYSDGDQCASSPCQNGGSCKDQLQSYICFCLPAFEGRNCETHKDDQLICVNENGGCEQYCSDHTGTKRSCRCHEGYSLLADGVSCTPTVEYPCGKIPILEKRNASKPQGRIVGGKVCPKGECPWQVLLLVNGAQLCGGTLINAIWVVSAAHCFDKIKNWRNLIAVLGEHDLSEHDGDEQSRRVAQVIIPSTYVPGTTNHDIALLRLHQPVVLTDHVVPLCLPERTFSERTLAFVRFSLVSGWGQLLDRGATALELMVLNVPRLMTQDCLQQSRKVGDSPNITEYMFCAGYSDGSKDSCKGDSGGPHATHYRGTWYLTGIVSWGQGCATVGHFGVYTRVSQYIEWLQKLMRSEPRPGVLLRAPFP
Method: (§1) The running buffer was prepared by diluting 10-fold the 10×HBS-P buffer (supplied by GE Healthcare) and supplemented with 1 mg/ml BSA and 5 mM CaCl2 to give 10 mM HEPES, 150 mM NaCl, 0.05% v/v Polysorbate 20, pH 7.4, 5 mM CaCl2, 1 mg/ml bovine serum albumin (BSA). […] Regeneration of the chip was achieved using 10 mM HEPES, 150 mM NaCl, 20 mM EDTA, 0.05 v/v Polysorbate 20, pH 7.4. Binding data were analysed according to a 1:1 Kinetic model and steady state analysis using BiaEvaluation 4.1 supplied by the manufacturer (Biacore AB, Uppsala, Sweden). Wherever possible, ka, kd and KD values from 1:1 kinetic fitting model are reported. […] An amino acid residue is considered a hot-spot residue if substitution of that amino acid residue with alanine results in an affinity reduction of ten (10) fold or more relative to the wild type.

[2] = molecular target: T2, FVII(a) variant E116A (human, UniProt P08709 61-466)
T2 construct: hFVII alanine variant in cell culture supernatant
T2 sequence: T1 sequence with E116A, A185T
Method: as §1

[3] = molecular target: T3, FVII(a) variant G117A (human, UniProt P08709 61-466)
T3 construct: hFVII alanine variant in cell culture supernatant
T3 sequence: T1 sequence with G117A, A185T
Method: as §1

[4] = molecular target: T4, FVII(a) variant Y118A (human, UniProt P08709 61-466)
T4 construct: hFVII alanine variant in cell culture supernatant
T4 sequence: T1 sequence with Y118A, A185T
Method: as §1

[5] = molecular target: T5, FVII(a) variant T130A (human, UniProt P08709 61-466)
T5 construct: hFVII alanine variant in cell culture supernatant
T5 sequence: T1 sequence with T130A, A185T
Method: as §1

B1: mAb0842(OA) (antibody, human IgG4 S228P, kappa)
heavy: QVQLQESGPGLVKPSQTLSLTCTVSGYSISSDSAWSWIRQPPGKGLEWIGYIQYSGSTNYNPSLKSRVTISRDTSKNQFSLKLSSVTAADTAVYYCARSVNYYGNSFAVGYWGQGTLVTVSSASTKGPSVFPLAPCSRSTSESTAALGCLVKDYFPEPVTVSWNSGALTSGVHTFPAVLQSSGLYSLSSVVTVPSSSLGTKTYTCNVDHKPSNTKVDKRVESKYGPPCPPCPAPEFLGGPSVFLFPPKPKDTLMISRTPEVTCVVVDVSQEDPEVQFNWYVDGVEVHNAKTKPREEQFNSTYRVVSVLTVLHQDWLNGKEYKCKVSNKGLPSSIEKTISKAKGQPREPQVYTLPPSQEEMTKNQVSLSCAVKGFYPSDIAVEWESNGQPENNYKTTPPVLDSDGSFFLVSRLTVDKSRWQEGNVFSCSVMHEALHNHYTQKSLSLSLGK
light: EIVLTQSPATLSLSPGERATLSCRASQGISDYLHWYQQKPGEAPRLLIKYTSQPATGIPARFSGSGSGTDFTLTISSLEPEDFAVYYCQNGHSFPLTFGQGTKLEIKRTVAAPSVFIFPPSDEQLKSGTASVVCLLNNFYPREAKVQWKVDNALQSGNSQESVTEQDSKDSTYSLSSTLTLSKADYEKHKVYACEVTHQGLSSPVTKSFNRGEC
chain: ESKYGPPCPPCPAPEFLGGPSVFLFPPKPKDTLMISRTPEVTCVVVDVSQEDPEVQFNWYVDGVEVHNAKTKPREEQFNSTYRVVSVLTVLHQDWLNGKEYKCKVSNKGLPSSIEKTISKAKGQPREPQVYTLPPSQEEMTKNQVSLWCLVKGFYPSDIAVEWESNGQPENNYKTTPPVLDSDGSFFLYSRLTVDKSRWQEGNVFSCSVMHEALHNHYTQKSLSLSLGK
notes: also called monovalent humanized 11F2 antibody; one-armed anti-FVII(a) antibody
Kd [1]: 1.01 nM | Kd [2]: 0.5 nM | Kd [3]: 0.31 nM | Kd [4]: 1.48 nM | Kd [5]: 32.1 nM
